Laboratory results as given in publication PMC7314397 (Protein Science : A Publication of the Protein Society, 2020).

T1: Homo sapiens NCBD (nuclear coactivator binding domain) from CREBBP (Homo sapiens (human), UniProt Q92793 2061-2109)
T1 chain: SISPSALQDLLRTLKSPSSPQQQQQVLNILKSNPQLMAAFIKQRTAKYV


Legend:
Assay in all cases: ITC
[1] = target: Strongylocentrotus purpuratus NCBD (nuclear coactivator binding domain of CREBBP/p300) (Strongylocentrotus purpuratus (purple sea urchin))
[2] = target: Petromyzon marinus NCBD (nuclear coactivator binding domain of CREBBP/p300) (Petromyzon marinus (sea lamprey))
[3] = target: Homo sapiens NCBD (nuclear coactivator binding domain) from CREBBP (Homo sapiens (human)) (UniProt Q92793)
[4] = target: T1, Homo sapiens NCBD (nuclear coactivator …)

| Molecule | Kd [1] [nM] | Kd [2] [nM] | further results |
| --- | --- | --- | --- |
| Homo sapiens CID (CREBBP-binding domain) from NCOA3 (ACTR) (from UniProt Q9Y6Q9 1045-1086) (domain or fragment) | 13000 |  |  |
| Petromyzon marinus CID, from the first of the two NCOA proteins (domain or fragment) |  | 200 |  |
| Petromyzon marinus CID, from the second of the two NCOA proteins (domain or fragment) |  | 200 |  |
| Strongylocentrotus purpuratus CID (CREBBP-binding domain of NCOA) (domain or fragment) | 7000 to 22000 |  | Kd [3]: 4800 nM; stoichiometry N [1]: 1.7 |
| EGQSDERALLDQLHTLLSNTDATGLEEIDRALGIPELVNQGQ (domain or fragment, Homo sapiens (human)) [Homo sapiens CID (CREBBP-binding domain) from NCOA3 (ACTR)] |  |  | Kd [4]: 400 nM |
